According to US8440804B2, “Polypeptides having modulatory effects on cells” (Ecole Normale Superieure de Lyon, priority 2006, dated 2013):
Positions count from the first letter of the chain named.

T1: NS5A-TP2 (Homo sapiens, UniProt Q7Z4H3)
T1 construct: expressed in transfected cells; host or cells: yeast
T1 sequence (Q7Z4H3 1-204): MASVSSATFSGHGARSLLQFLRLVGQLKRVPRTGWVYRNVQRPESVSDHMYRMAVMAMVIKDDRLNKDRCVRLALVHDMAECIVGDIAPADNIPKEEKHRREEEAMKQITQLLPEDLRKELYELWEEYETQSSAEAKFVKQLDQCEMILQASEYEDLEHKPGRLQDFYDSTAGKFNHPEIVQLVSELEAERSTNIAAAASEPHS

B1: C2: R5G42 mutant having a one amino acid change (SEQ ID 23) (protein)
chain: MVKQIESKTAFQEALDAAGDKLVVVDFSATWCGPSAVTFAVCALGPCKMIKLFFHSLSEKYSNVIFLEVDVDDCQDVASECEVKCMPTFQFFKKGQKVGEFSGANKEKLEATINELV
modifications: Aptamer R5G42 mutant C2
B2: C7: R5G42 mutant having a one amino acid change (SEQ ID 27) (protein)
chain: B1 chain with L22P, L52P
modifications: Aptamer R5G42 mutant C7
B3: C8: R5G42 mutant having a one amino acid change (SEQ ID 28) (protein)
chain: B1 chain with F39I, L52P
modifications: Aptamer R5G42 mutant C8
B4: receptor activator of nuclear factor (NF)-κB ligand (protein, UniProt O14788 140-317, looked up)
Tumor necrosis factor ligand …: IRAEKAMVDGSWLDLAKRSKLEAQPFAHLTINATDIPSGSHKVSLSSWYHDRGWAKISNMTFSNGKLIVNQDGFYYLYANICFRHHETSGDLATEYLQLMVYVTKTSIKIPSSHTLMKGGSTKYWSGNSEFHFYSINVGGFFKLRSGEEISIEVSNPSLLDPDQDATYFGAFKVRDID
notes: TNF family cytokine, normal osteoclast differentiation factor

Tests used:
CNA = assay: Yeast two-hybrid assay; assay type: binding, human; conditions: mating assay, LexA-aptamer fusions
Source text: (A) Yeast two-hybrid mating assay. TB50α yeast were co-transformed with pSH18-34T (bearing a lacZ reporter gene) and plasmids directing the expression of LexA alone or in fusion with peptide aptamers R5G42, R7G44 or R5G52. MB210a yeast were transformed with the selected cDNA library plasmids directing the expression of CNAβ, CNAγ, and NS5ATP2 truncated proteins. To obtain negative controls, MB210a yeast were also transformed with the empty prey plasmid (pJG4-5) and with pJG4-5 directing the expression of Ras and FKBP12 prey proteins. To obtain a positive control, MB210a yeast were transformed with pJG4-5 directing the expression of RG22 peptide aptamer prey fusion protein that interacts with LexA in the context of most LexA fusion proteins.
The inventors set out to map the R5G42 binding site on CNA. The CNA interacting clones selected in the yeast two-hybrid experiments corresponded to the carboxy-terminal regions of the beta and gamma isoforms, encompassing the calmodulin-binding domain and the auto-inhibitory domain (see FIG. 3B). […] The LexA-R5G52 bait protein may thus not be properly expressed and/or folded in this yeast two-hybrid setting.
(§1) The inventors explored the ability of R5G42 mutants having a one amino acid change as compared to R5G42, to bind to CNA beta and gamma C-Terminal fragments (FIG. 3b) and to NS5A-TP2. To this end, they proceeded to yeast-two hybrid assays as in example 3. CNA beta and gamma C-Terminal fragments (FIG. 3b) and NS5A-TP2 were cloned in three different plasmids (pSH18-34, pJK103 and pRB18-40), which differed from each other in the level of sensitivity of their promoter to the bait/prey complex formation, pSH18-34 having the highest sensitivity and pRB18-40 having the lowest.
The 5′ end of RH6 (upper case) matches part of the HA epitope tag and the 5′ ends of RH4, RH3 and RH7 (upper case) match the 5′ extremity of the ADH terminator. The PCR reactions was performed using pCMV-SPORT6-CnAβ as a template. CnAβCter Δ1, Δ2, CaM were constructed by combining oligonucleotides RH6/RH4, RH6/RH3, RH6/RH7, respectively. […]

MCF-7 cells = assay: Colony formation assay (cell proliferation assay, crystal violet); assay type: cell-based; conditions: MCF-7, continuous expression 2 weeks, compared to AptaLib and human thioredoxin
Method: (§2) (B) Colony formation assays. Hela or MCF-7 cells were transfected with plasmids directing the stable expression of the Cdk inhibitor p21, a library of peptide aptamers from pBK1 (AptaLib), Human thioredoxin (HTRX), and peptide aptamers R7G44, R5G42, R5G52. The cells were cultured for two weeks and the colonies were stained with crystal violet.
(§3) The inventors wished to establish the antiproliferative activity of these peptide aptamers using alternative cellular models and a non-retroviral vector to express individually each aptamer. They cloned the aptamer coding genes into a vector bearing a hygromycin selection marker. They also subcloned the pBK1 library into this vector, to create “AptaLib”. They continuously expressed the aptamers, the empty thioredoxin scaffold or AptaLib in Hela and MCF-7 cells for 2 weeks and they stained the cells that grew. […] These aptamers may originate from the remaining background of slowly proliferating cells during the seventh screening iteration, independently of the expressed aptamers. […] This could be due to the fact that the CMTMR assay is more sensitive in detecting modest antiproliferative effects than the colony formation assay or that some peptide aptamers somehow enhance the CMTMR labeling of their host cells.
(§4) To stably express peptide aptamers in mammalian cells, the episomal eukaryotic expression vector pCEP4 that bears a CMV promoter and a hygromycin selection marker (InVitrogen) was used. Aptamer coding sequences were PCR amplified using the oligonucleotides
(§5) that contained a stop codon. The PCR products were digested with NheI and NotI and ligated into NheI/NotI-cut pCEP4 to create pEA-aptamer plasmids. 3×10^5 cells/well were plated in 6-well plates and transfected 24 h after using Jet PEI (Qbiogen), 3.7 μg pEA-aptamer plasmids and 0.3 μg pEGFP-C1 (Clontech) to monitor transfection. Hygromycin (InVitrogen) was added at 200 μg/ml two days later and the cells were cultured for 2 weeks, renewing the medium twice a week. The cells were then rinsed in PBS and were fixed and stained by incubating 30 min in crystal violet (0.05% crystal violet, 20% ethanol, 0.37% formaldehyde). Excess crystal violet was removed by washing with water. In Vitro Phosphatase Assay

Hela cells = assay: as above; assay type: cell-based; conditions: continuous expression 2 weeks, compared to AptaLib and human thioredoxin
Method: as §2, §3, §4, §5

[1] = molecular target: T2, CNA beta C-terminal fragment (Homo sapiens, UniProt P16298); assay: Yeast two-hybrid assays of R5G42 mutants; assay type: binding; conditions: plasmids pSH18-34, pJK103, pRB18-40
T2 construct: expressed in transfected cells; host or cells: yeast (MB210a transformed with library plasmid, mated with bait strain)
Method: (§6) The capacity of R5G42 mutants having a one amino acid change as compared to R5G42 to bind CNA beta and gamma C-Terminal fragments (FIG. 3b) and NS5A-TP2 was tested in yeast two-hybrid assays. CNA beta and gamma C-Terminal fragments and NS5A-TP2 were cloned in three different vectors (pSH18-34, pJK103 and pRB18-40). These three plasmids differ from each other in the level of sensitivity of their promoter, pSH18-34 having the highest sensitivity and pRB18-40 having the lowest.
as §1

NS5A-TP2 = molecular target: T1, NS5A-TP2; assay: Further yeast two-hybrid binding assays (higher sensitivity)
Source text: FIG. 14. Specificity of aptamers according to the invention for CNA and NS5A-TP2 Interaction matrix between peptide aptamers R5G42, C2, C7, C8, N9, R5G44 and R5G52 with CNA constructs CNA1-CNA8 (A) CNA9-11 (B) and NS5A-TP2 (C). An interaction phenotype between CNA3/CNA 11, which both contain the Calmodulin binding domain (CaM) and the auto-inhibitory domain (Al) but not the CNB binding domain (CNB) and the aptamers R5G42, C2, C7, C8 and N9 is observed in a two-hybrid assay. R5G44 and R5G52 aptamers recognize neither the CNA fragments, nor NS5A-TP2. Only aptamers R5G42 and N9 recognize NS5A-TP2.
The inventors proceeded to further yeast two-hybrid binding assays between peptide aptamers R5G42 (SEQ ID 22), C2 (SEQ ID 23), C7 (SEQ ID 27), C8 (SEQ ID 28), N9 (SEQ ID 33), R5G44 and R5G52 with CNA constructs CNA1-CNA8 (FIG. 14A), CNA9-CNA11 (FIG. 14B) and NS5A-TP2 (SEQ ID 15) (FIG. 14C). The sensitivity of this yeast two-hybrid assay was higher than in the experiment reported above.

[2] = tested on: Raw1 cells (osteoclasts precursors); assay: Raw cell differentiation assay (osteoclast differentiation); assay type: cell-based
Source text: Trx, CNA* and Peptide aptamers R5G42, C2, C7, C8 and N9 were transfected into RAW1 cells and left for four days in absence of the normal differentiation factor RANKL. CNA* is activated calcineurin A which elicits a robust differentiation response.
The inventors assessed the ability of some CNA-specific peptide aptamers to promote osteoclast differentiation via the activation of CNA. […] The differentiation state was then observed 4 days post-transfection.
Raw1 cells were transfected with the following plasmids: pCI-HA-Trx (negative control), pCI-HA CNA* (positive control for differentiation activation), pCI-HA R5G42, pCI-HA R5G42-C2, pCI-HA R5G42-C7, pCI-HA R5G42-C8 and pCI-HA R5G42-N9. The sequence of CNA* is the same as that of CNA8 (see FIG. 17, SEQ ID 42). The sequences of the R5G42 (SEQ ID 22), C2 (SEQ ID 23), C7 (SEQ ID 27), C8 (SEQ ID 28) and N9 (SEQ ID 33) aptamers is shown on FIG. 8.
One day before the transfection, Raw I cells were plated in 6-well dishes at 50 cell/mm^2. Transfection was performed with FuGene 6 Reagent (Roche) using 2 μg of each plasmid and following supplier recommendations.
8 h after transfection D-MEM was changed with α-MEM. In the control dishes α-MEM+50 ng/ml RANKL was added. After 2 days, medium was changed with a fresh medium. The differentiation state was then observed 4 days post-transfection.

[3] = tested on: CNA gamma C-terminal fragment; assay: Yeast two-hybrid assays of R5G42 mutants; assay type: binding, human; conditions: plasmids pSH18-34, pJK103, pRB18-40
Method: as §6, §1

[4] = 4 days post-transfection, absence of RANKL

Chain of CNA gamma C-terminal fragment (P48454 386-512 limits assumed): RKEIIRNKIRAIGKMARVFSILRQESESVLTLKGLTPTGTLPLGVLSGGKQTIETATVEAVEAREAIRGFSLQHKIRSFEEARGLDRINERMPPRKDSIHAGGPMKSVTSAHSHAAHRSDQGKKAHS

yeast two-hybrid interaction [1] | Molecule | yeast two-hybrid interaction phenotype with CNA (CNA) | inhibition of cell proliferation (colony formation) (MCF-7 cells) | inhibition of cell proliferation (colony formation) (Hela cells) | recognition of NS5A-TP2 (NS5A-TP2) | osteoclast differentiation [2, 4] | yeast two-hybrid interaction [3] | osteoclast differentiation ([2]; control conditions, 50 ng/ml RANKL)
– | R7G44: peptide aptamer: variable region HQSTIGVAEF in human thioredoxin (SEQ ID 31); control without antiproliferative effect | did not show an interaction phenotype | did not exert any antiproliferative effect | did not exert any antiproliferative effect | – | – | – | –
– | R7G11: peptide aptamer: variable region LHLAGRGWEN in human thioredoxin (SEQ ID 30) (Aptamer variable sequence of R7G11) | – | did not inhibit cell proliferation | did not inhibit cell proliferation | – | – | – | –
shown to interact | B1 | – | – | – | only aptamers which recognized NS5A-TP2 were R5G42 and N9 | no osteoclasts fully differentiated were detectable | shown to interact | –
shown to interact | B2 | – | – | – | only aptamers which recognized NS5A-TP2 were R5G42 and N9 | Some cells with the osteoclast phenotype can be observed | shown to interact | –
shown to interact | B3 | – | – | – | only aptamers which recognized NS5A-TP2 were R5G42 and N9 | no osteoclasts fully differentiated were detectable | shown to interact | –
– | B4 | – | – | – | – | – | – | differentiated into osteoclasts
